Assay results published in PMC2756588.

T1: Fus1, P11710
T1 sequence (P11710 432-512, looked up): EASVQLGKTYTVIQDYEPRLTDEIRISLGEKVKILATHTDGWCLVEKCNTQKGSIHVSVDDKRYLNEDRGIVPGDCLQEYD

T2: Boi1, P38041
T2 sequence (P38041 1-86, looked up): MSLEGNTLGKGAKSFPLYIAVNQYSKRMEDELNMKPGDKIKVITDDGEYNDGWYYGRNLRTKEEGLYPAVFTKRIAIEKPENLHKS

T3: Cdc25, P04821
T3 sequence (P04821 50-136, looked up): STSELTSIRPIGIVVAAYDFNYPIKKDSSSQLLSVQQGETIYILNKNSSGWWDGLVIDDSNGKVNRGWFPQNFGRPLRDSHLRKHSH

T4: Cyk3, Q07533
T4 sequence (Q07533 1-83, looked up): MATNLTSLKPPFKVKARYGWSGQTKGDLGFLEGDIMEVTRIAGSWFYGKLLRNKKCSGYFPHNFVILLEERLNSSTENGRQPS

T5: Bzz1-2, P38822
T5 sequence (P38822 568-633, looked up): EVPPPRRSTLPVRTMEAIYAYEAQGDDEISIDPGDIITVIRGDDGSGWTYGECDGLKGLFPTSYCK

T6: Lsb1, P53281
T6 sequence (P53281 45-122, looked up): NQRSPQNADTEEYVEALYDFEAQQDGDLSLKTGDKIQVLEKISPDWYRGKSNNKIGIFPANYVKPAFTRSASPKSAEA

T7: Abp1, P15891
T7 sequence (P15891 535-592, looked up): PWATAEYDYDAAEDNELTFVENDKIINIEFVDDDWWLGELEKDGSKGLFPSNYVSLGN

T8: Bud14, P27637
T8 sequence (P27637 247-328, looked up): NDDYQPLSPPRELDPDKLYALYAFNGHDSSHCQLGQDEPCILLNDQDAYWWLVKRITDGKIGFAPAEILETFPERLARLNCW

T9: Lsb4, P32793
T9 sequence (P32793 402-468, looked up): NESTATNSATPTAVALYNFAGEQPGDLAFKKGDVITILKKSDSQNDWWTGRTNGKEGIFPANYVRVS

T10: Pin3, Q06449
T10 sequence (Q06449 53-122, looked up): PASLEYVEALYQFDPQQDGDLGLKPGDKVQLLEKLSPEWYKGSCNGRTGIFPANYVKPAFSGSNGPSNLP

T11: Lsb3, P43603
T11 sequence (P43603 385-451, looked up): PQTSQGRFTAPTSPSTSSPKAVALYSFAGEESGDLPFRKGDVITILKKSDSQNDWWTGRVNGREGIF

T12: Bzz1-1, P38822
T12 sequence (P38822 478-572, looked up): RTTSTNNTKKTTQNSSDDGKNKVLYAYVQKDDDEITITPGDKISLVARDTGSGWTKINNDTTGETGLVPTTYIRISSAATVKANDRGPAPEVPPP

T13: Nbp2, Q12163
T13 sequence (Q12163 103-180, looked up): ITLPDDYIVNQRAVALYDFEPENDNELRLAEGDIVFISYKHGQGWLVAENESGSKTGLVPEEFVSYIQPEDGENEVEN

T14: Pex13, P80667
T14 sequence (P80667 295-386, looked up): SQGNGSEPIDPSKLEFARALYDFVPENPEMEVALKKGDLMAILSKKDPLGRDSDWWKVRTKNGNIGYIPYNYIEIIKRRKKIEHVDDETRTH

T15: Boi2, P39969
T15 sequence (P39969 32-116, looked up): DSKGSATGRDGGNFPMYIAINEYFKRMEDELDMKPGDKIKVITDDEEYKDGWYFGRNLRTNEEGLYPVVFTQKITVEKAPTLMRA

T16: Hse1, P38753
T16 sequence (P38753 208-285, looked up): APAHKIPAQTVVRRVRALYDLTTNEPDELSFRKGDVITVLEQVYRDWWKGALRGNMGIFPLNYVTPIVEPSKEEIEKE

T17: Sla1-2, P32790
T17 sequence (P32790 60-140, looked up): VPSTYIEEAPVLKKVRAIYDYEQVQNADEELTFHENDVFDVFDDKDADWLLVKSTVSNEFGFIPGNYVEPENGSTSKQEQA

T18: Hof1, Q05080
T18 sequence (Q05080 590-669, looked up): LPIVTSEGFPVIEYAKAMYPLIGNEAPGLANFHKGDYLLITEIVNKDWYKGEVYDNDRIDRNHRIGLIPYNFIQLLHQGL

T19: Myo5, Q04439
T19 sequence (Q04439 1072-1160, looked up): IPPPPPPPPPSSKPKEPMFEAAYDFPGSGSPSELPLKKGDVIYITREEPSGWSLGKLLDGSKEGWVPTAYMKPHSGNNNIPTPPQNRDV

T20: Bbc1, P47068
T20 sequence (P47068 1-78, looked up): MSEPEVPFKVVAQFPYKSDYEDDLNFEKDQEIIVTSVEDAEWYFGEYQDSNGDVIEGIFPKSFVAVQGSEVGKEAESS

T21: Sla1-3, P32790
T21 sequence (P32790 344-424, looked up): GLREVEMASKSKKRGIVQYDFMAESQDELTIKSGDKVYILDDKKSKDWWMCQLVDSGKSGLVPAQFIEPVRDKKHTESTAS

B1: unnamed (peptide)
chain: LEFRAILFIPKRAPF
B2: unnamed (peptide)
chain: APKREAPKPPANTSP
B3: unnamed (peptide)
chain: RLSRLLLSLPPESFT

Molecular target: T1, Fus1, P11710
Assay: SPOT array
Details: median of control spots 1200

Compared with B1, B2 is lower in SPOT intensity: 87 for the first, 0 for the second.

In the case of B3, the SPOT intensity is reported as 81.

Molecular target: T2, Boi1, P38041
Assay: SPOT array
Details: median of control spots 1162

Compared with B1, B2 is lower in SPOT intensity: 10 for the first, 0 for the second.

For B3, the SPOT intensity was 7.

Molecular target: GST
Assay: SPOT array
Details: median of control spots 978

B1 and B2 are the same in SPOT intensity: 0 for the first, 0 for the second.

With B3 the SPOT intensity was 0.

Molecular target: T3, Cdc25, P04821
Assay: SPOT array
Details: median of control spots 969

Going from B1 to B2, the SPOT intensity falls from 29 to 3.

In the case of B3, the SPOT intensity is reported as 172.

Molecular target: T4, Cyk3, Q07533
Assay: SPOT array
Details: median of control spots 1451

Going from B1 to B2, the SPOT intensity falls from 1 to 0.

With B3 the SPOT intensity was 2.

Molecular target: Rvs167, P39743
Sequence (P39743 419-482): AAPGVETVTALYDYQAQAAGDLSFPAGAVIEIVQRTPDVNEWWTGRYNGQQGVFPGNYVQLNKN
Assay: SPOT array
Details: median of control spots 2707

B1 and B2 are the same in SPOT intensity: 0 for the first, 0 for the second.

With B3 the SPOT intensity was 0.

Molecular target: T5, Bzz1-2, P38822
Assay: SPOT array
Details: median of control spots 4538

B1 and B2 are the same in SPOT intensity: 0 for the first, 0 for the second.

B3 was tested, and the SPOT intensity was 4.

Molecular target: T6, Lsb1, P53281
Assay: SPOT array
Details: median of control spots 388

Going from B1 to B2, the SPOT intensity falls from 35 to 0.

For B3, the SPOT intensity was 6.

Molecular target: Bem1-2, P29366
Sequence (P29366 139-227): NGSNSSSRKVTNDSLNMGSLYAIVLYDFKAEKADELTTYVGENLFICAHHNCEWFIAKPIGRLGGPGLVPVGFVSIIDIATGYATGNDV
Assay: SPOT array
Details: median of control spots 4347

First: B1
Second: B2
The SPOT intensity of the first is higher: 1 for the first, 0 for the second.

Binder B3 has an SPOT intensity of 11.

Molecular target: T7, Abp1, P15891
Assay: SPOT array
Details: median of control spots 935

Going from B1 to B2, the SPOT intensity falls from 92 to 9.

Binder B3 has an SPOT intensity of 57.

Molecular target: Bem1-1, P29366
Sequence (P29366 55-141): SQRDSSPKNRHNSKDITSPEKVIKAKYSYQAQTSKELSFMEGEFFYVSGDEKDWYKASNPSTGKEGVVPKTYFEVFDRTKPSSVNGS
Assay: SPOT array
Details: median of control spots 4282

First: B1
Second: B2
The SPOT intensity of the first is higher: 3 for the first, 0 for the second.

Work on B3 yielded an SPOT intensity of 0.

Molecular target: T8, Bud14, P27637
Assay: SPOT array
Details: median of control spots 956

Going from B1 to B2, the SPOT intensity falls from 13 to 0.

B3 was tested, and the SPOT intensity was 50.

Molecular target: T9, Lsb4, P32793
Assay: SPOT array
Details: median of control spots 397

First: B1
Second: B2
The SPOT intensity of the first is higher: 18 for the first, 1 for the second.

B3 gave an SPOT intensity of 3.

Molecular target: T10, Pin3, Q06449
Assay: SPOT array
Details: median of control spots 2171

Going from B1 to B2, the SPOT intensity falls from 68 to 2.

For B3, the SPOT intensity was 27.

Molecular target: T11, Lsb3, P43603
Assay: SPOT array
Details: median of control spots 406

Compared with B1, B2 is lower in SPOT intensity: 26 for the first, 0 for the second.

Work on B3 yielded an SPOT intensity of 0.

Molecular target: T12, Bzz1-1, P38822
Assay: SPOT array
Details: median of control spots 4446

Going from B1 to B2, the SPOT intensity rises from 0 to 10.

B3 gave an SPOT intensity of 0.

Molecular target: Myo3, P36006
Assay: SPOT array
Details: median of control spots 468

Going from B1 to B2, the SPOT intensity rises from 34 to 277.

B3 showed an SPOT intensity of 10.

Molecular target: Sho1, P40073
Sequence (P40073 287-367): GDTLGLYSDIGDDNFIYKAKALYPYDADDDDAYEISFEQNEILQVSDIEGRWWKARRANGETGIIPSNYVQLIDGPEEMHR
Assay: SPOT array
Details: median of control spots 1148

First: B1
Second: B2
The SPOT intensity of the first is higher: 103 for the first, 0 for the second.

Work on B3 yielded an SPOT intensity of 66.

Molecular target: T13, Nbp2, Q12163
Assay: SPOT array
Details: median of control spots 357

Compared with B1, B2 is higher in SPOT intensity: 53 for the first, 139 for the second.

Binder B3 has an SPOT intensity of 42.

Molecular target: T14, Pex13, P80667
Assay: SPOT array
Details: median of control spots 1341

Going from B1 to B2, the SPOT intensity falls from 59 to 7.

B3 showed an SPOT intensity of 19.

Molecular target: T15, Boi2, P39969
Assay: SPOT array
Details: median of control spots 1161

First: B1
Second: B2
The SPOT intensity of the first is higher: 4 for the first, 0 for the second.

In the case of B3, the SPOT intensity is reported as 2.

Molecular target: T16, Hse1, P38753
Assay: SPOT array
Details: median of control spots 1727

Going from B1 to B2, the SPOT intensity falls from 6 to 0.

B3 was tested, and the SPOT intensity was 59.

Molecular target: T17, Sla1-2, P32790
Assay: SPOT array
Details: median of control spots 712

First: B1
Second: B2
The SPOT intensity of the first is higher: 6 for the first, 0 for the second.

B3 was tested, and the SPOT intensity was 0.

Molecular target: T18, Hof1, Q05080
Assay: SPOT array
Details: median of control spots 4086

First: B1
Second: B2
The SPOT intensity of the first is higher: 5 for the first, 0 for the second.

B3 showed an SPOT intensity of 89.

Molecular target: T19, Myo5, Q04439
Assay: SPOT array
Details: median of control spots 471

Compared with B1, B2 is higher in SPOT intensity: 9 for the first, 126 for the second.

B3 gave an SPOT intensity of 0.

Molecular target: T20, Bbc1, P47068
Assay: SPOT array
Details: median of control spots 796

Compared with B1, B2 is higher in SPOT intensity: 22 for the first, 56 for the second.

For B3, the SPOT intensity was 47.

Molecular target: T21, Sla1-3, P32790
Assay: SPOT array
Details: median of control spots 5475

First: B1
Second: B2
The SPOT intensity of the first is lower: 8 for the first, 12 for the second.

With B3 the SPOT intensity was 45.
